What was measured:
OATP4C1 = target: T1, OATP4C1 (Homo sapiens, UniProt Q6ZQN7); experiment: inhibition of OATP4C1-mediated L-homoarginine ([…]) net uptake in HEK cells; type: cell-based
T1 construct: gene SLCO4C1
T1 sequence (Q6ZQN7 1-724): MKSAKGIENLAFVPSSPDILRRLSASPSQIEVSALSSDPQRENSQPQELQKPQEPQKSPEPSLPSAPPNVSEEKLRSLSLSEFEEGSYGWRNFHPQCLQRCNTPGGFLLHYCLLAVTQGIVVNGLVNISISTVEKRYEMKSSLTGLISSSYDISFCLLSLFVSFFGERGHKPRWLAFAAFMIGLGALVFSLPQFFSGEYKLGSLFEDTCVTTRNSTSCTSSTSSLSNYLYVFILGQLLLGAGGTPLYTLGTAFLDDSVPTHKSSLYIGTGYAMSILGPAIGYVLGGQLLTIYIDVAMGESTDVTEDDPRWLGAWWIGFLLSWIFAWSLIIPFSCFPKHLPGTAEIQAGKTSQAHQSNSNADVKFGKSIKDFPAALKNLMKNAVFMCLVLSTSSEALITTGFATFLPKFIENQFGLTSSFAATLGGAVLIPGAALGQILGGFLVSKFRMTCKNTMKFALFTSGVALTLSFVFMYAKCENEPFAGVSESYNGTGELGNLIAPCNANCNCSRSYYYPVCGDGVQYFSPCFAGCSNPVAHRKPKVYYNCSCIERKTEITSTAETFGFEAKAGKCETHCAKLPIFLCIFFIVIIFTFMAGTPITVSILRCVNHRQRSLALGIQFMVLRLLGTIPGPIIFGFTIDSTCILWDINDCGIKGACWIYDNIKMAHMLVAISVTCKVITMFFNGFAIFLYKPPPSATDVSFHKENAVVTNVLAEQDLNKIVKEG

[1] = substrate: N=C(N)NCCCC[C@H](N)C(=O)O; experiment: radiolabeled uptake and efflux in HEK-OATP4C1 vs vector control cells (Km); type: cell-based, Homo sapiens
[2] = substrate: CN(C)C(=N)NCCC[C@H](N)C(=O)O; experiment: radiolabeled uptake and efflux in HEK-OATP4C1 vs vector control cells (Km); also inhibits L-homoarginine uptake; type: cell-based, Homo sapiens
[3] = substrate: N=C(N)NCCC[C@H](N)C(=O)O; experiment: radiolabeled uptake in HEK-OATP4C1 vs vector control cells (Km); type: cell-based, Homo sapiens

Q: For `CN=C(NC)NCCC[C@H](N)C(=O)O` [SDMA], which IC50 (OATP4C1) is on record?
A: 54 ± 1.3 µM

B1: OATP4C1 (Homo sapiens) (protein)
chain: MKSAKGIENLAFVPSSPDILRRLSASPSQIEVSALSSDPQRENSQPQELQKPQEPQKSPEPSLPSAPPNVSEEKLRSLSLSEFEEGSYGWRNFHPQCLQRCNTPGGFLLHYCLLAVTQGIVVNGLVNISISTVEKRYEMKSSLTGLISSSYDISFCLLSLFVSFFGERGHKPRWLAFAAFMIGLGALVFSLPQFFSGEYKLGSLFEDTCVTTRNSTSCTSSTSSLSNYLYVFILGQLLLGAGGTPLYTLGTAFLDDSVPTHKSSLYIGTGYAMSILGPAIGYVLGGQLLTIYIDVAMGESTDVTEDDPRWLGAWWIGFLLSWIFAWSLIIPFSCFPKHLPGTAEIQAGKTSQAHQSNSNADVKFGKSIKDFPAALKNLMKNAVFMCLVLSTSSEALITTGFATFLPKFIENQFGLTSSFAATLGGAVLIPGAALGQILGGFLVSKFRMTCKNTMKFALFTSGVALTLSFVFMYAKCENEPFAGVSESYNGTGELGNLIAPCNANCNCSRSYYYPVCGDGVQYFSPCFAGCSNPVAHRKPKVYYNCSCIERKTEITSTAETFGFEAKAGKCETHCAKLPIFLCIFFIVIIFTFMAGTPITVSILRCVNHRQRSLALGIQFMVLRLLGTIPGPIIFGFTIDSTCILWDINDCGIKGACWIYDNIKMAHMLVAISVTCKVITMFFNGFAIFLYKPPPSATDVSFHKENAVVTNVLAEQDLNKIVKEG
Q: Which Km [1] does the source give for B1 here?
A: 49.9 ± 9.6 µM

Q: And the Km [2]?
A: 232.1 ± 78.9 µM

Q: And the Km [3]?
A: 48.1 ± 5.7 µM
